These results are taken from the RNAGym collection of RNA variant scans (doi:10.1073/pnas.2313332121).

B1: TPR t1 (parent)
chain: GACCAAUCUGCCCUCAGAGCUCGAGAACAUCUUCGGAUGCAGAGGAGGCAGGCUUCGGUGGCGCGAUAGCGCCAACGUCCUCAACCUCCAAUGCAUCCCACCACAUGAUGAUGCCUGAAGAGCCUUGGUUUUUUG

The data set covers variants of B1. Description: polymerase ribozyme fitness, log enrichment relative to wild type (log ratio); higher = more active; in vitro selection for triplet polymerase activity. Put shortly:
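Each subunit of a heterodimeric triplet polymerase ribozyme was mutagenized into a library by PCR, transcribed, and subjected to one round of in vitro selection, run in triplicate. Libraries were annealed with a biotinylated primer, the partner subunit and triplets, incubated frozen at −7 °C, and extended constructs were gel-excised, captured on streptavidin beads and recovered by RT-PCR. Input and output libraries were sequenced on Illumina, keeping genotypes with ≥10 input reads and ≥1 read per output. Fitness is log base 2 of genotype enrichment divided by wild-type enrichment, from inverse-variance-weighted replicate averages.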
For U9A A43U A50C, the “polymerase ribozyme fitness (log ratio)” value was -1.66.
On to C8U G42U C73G, for which the “polymerase ribozyme fitness (log ratio)” value is -2.13.
On to C8U U21A C56U C114A G128A, for which the “polymerase ribozyme fitness (log ratio)” value was -2.5.
In the case of C8U U9C G52U U55C U59C it was 0.781; in that of U9A A24G, -0.725.
In the case of U9A A46U A74C C88G it was -2.48; in that of C8U G36A, -0.0427; in that of C8U G45C, -0.263.
Next, C8U U9C C12U G17A G19A G44U C114G: -5.67; C8U A41U C73A: -0.9.
For C8U C13G A29U G122A, the “polymerase ribozyme fitness (log ratio)” value was -2.49.
In the case of U9A A50U C62G, the “polymerase ribozyme fitness (log ratio)” value was -2.77.
On to C8U G44A G69C C89U A118U C124G G127C, for which the “polymerase ribozyme fitness (log ratio)” value turned out to be 0.163.
In the case of U9A A46G C53G G113U it was -1.54; in that of C8U C53A C99U C101G, -3.52; in that of C8U A16U G47A C101A C124U, -1.94.
Turning to U9A A24U G71A G107A U125G, the “polymerase ribozyme fitness (log ratio)” value was -7.09.
C8U G39A: the “polymerase ribozyme fitness (log ratio)” value came out at 0.0776.
On to C8U G39U, for which the “polymerase ribozyme fitness (log ratio)” value was 0.386.
Turning to C8U C40A C86A U130C, the “polymerase ribozyme fitness (log ratio)” value is -2.
Next, C8U C62A C114G U126A: -3.89.
Next, C8U A18C A41U A50G C101U: -2.01.
Next, U9A A27G C72U C114U: -1.39; C8G G61U: 0.967; C8G U87A U112G G113U C123U G127A: -3.6.
For C8U C86A, the “polymerase ribozyme fitness (log ratio)” value is -1.13.
Next, C8U A27C C72U C80A: -6.42; C8G U33G C99A C101A: -5.4.
Next, C8U C86A G113C U130G: -2.85.
Next, C8U G45A G52C C123G: -0.41; C8U U9G G60A: -0.0864; C8U C101A U112A: 1.32.
Consider C8U C28U C73U, for which the “polymerase ribozyme fitness (log ratio)” value is -1.68.
U9A: the “polymerase ribozyme fitness (log ratio)” value turned out to be 0.517.
Next, C8U G48U A50U C86U U96A: -0.998; C8U C11U U38G A43G C104U: -2.94; C8G U14G C53U G71U: 0.478.
Next, C8U G10A G42A G45A C53U C85A: -4.02; C8U C56G C64U C80A: -3.18; C8U G48A: -0.239.
Next, C8U C49U G61A: 0.346; C8U C13U G39A C80U C102A: -2.98.
On to C8U G47U G69A U131G, for which the “polymerase ribozyme fitness (log ratio)” value is -5.7.
In the case of C8U C79A it was -0.138; in that of C8U G23A, -4.81; in that of U9A C11U A66C G117U, -5.04.
In the case of U9A C11G C15G A91C G93A it was -3.49; in that of C8G G93A G113A, -0.312; in that of C8U G57A, -0.0154.
For the variant C8U U14A, the “polymerase ribozyme fitness (log ratio)” value is -0.398.
For C8U C12G G17C C80U A90U, the “polymerase ribozyme fitness (log ratio)” value is -2.49.
With U9A A26U C101G, the “polymerase ribozyme fitness (log ratio)” value was -4.48.
Next, C8U C34A A119G: -1.9.
In the case of C8U C12U it was 0.659; in that of C8U U130C, 0.805; in that of C8U C72A C76A, -1.75.
In the case of C8U U55G G77U G113C it was -1.83; in that of C8U A41C G58U C94G C104U U106A U112C, -3.18.
Consider C8U C11U A41G G45C G48U C73U C124A G128A, for which the “polymerase ribozyme fitness (log ratio)” value is -5.7.
In the case of U9A A46G C53G C72U C82A G113U, the “polymerase ribozyme fitness (log ratio)” value is -1.9.
With U9A A16U A43U A91G, the “polymerase ribozyme fitness (log ratio)” value was -0.987.
In the case of C8U A29U C70A U87A it was -2.4; in that of C8G G61A C94U C99G G117C, -7.13.
As for C8U C13G C102A G122A C123G, the “polymerase ribozyme fitness (log ratio)” value was -0.13.
In the case of C8U G61C U116A it was -3.22.
Take C8G G128U U130C: the “polymerase ribozyme fitness (log ratio)” value worked out at 0.904.
With C8G G61A U109A U132C, the “polymerase ribozyme fitness (log ratio)” value is -4.05.
Consider C8G U21C C22G G117C C123U C124A, for which the “polymerase ribozyme fitness (log ratio)” value is -4.09.
In the case of C8U C70U G110A it was -1.5; in that of C8U C62G, -0.903.
As to C8G U132A, the “polymerase ribozyme fitness (log ratio)” value turned out to be 0.53.
As to C8U C12A C72U G117C, the “polymerase ribozyme fitness (log ratio)” value was -1.86.
Next, C8U G63U C102G C114A U125A: -6.46.
In the case of C8U G36C G63U it was -1.95; in that of C8U G48A G57C G60U C82A G127A, -1.38.
C8U C28U C56A U87G A119G U130C: the “polymerase ribozyme fitness (log ratio)” value is -1.12.
Next, C8U A46G U54C C56A: -0.306; C8U G47A U59A A74U C124A: 0.355.
In the case of C8G G113C it was -1.31; in that of C8G G113A, 0.074; in that of C8G G69C U78G C101A, -3.19.
In the case of C8U A75U C89U A90U C99U G120A U130G U131A it was -4.88; in that of U9A C12A C88U G127A, -2.52.
